In paper doi:10.1101/2020.11.04.368696v1:

Test system: CC/C=C\CCO
Test: purified protein
Settings: 2 mM acetyl-CoA, 50 °C

CATec3 (CAT3_ECOLIX) (Escherichia coli; Y20F)
Km: 6.4 ± 2.2 mM
kcat: 2.3 ± 0.2 s⁻¹
